Assay results: patent US20250137008A1 (UNIVERSITY OF GLASGOW, published 2025)

T1: KAT1 voltage sensor domain (kVSD) (UniProt Q39128 1-200, limits assumed)
T1 construct: domain: voltage sensor domain (VSD); Nub-X prey in mbSUS; rBiFC partner; also called KAT1 VSD; VSD of KAT1
T1 sequence (looked up): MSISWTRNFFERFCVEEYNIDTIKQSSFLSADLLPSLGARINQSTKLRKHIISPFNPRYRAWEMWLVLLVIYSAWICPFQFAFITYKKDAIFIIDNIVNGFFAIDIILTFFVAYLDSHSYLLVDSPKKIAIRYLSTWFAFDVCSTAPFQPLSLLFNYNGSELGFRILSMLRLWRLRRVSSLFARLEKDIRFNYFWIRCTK

B1: gVSD^NP (other)
chain: MGRLRRRQEIIDHEEEESNDDVSSRRGKLSLAKTFRWLKSSKKRRIKTKGKNKYKYIIKPKNRWYKAWEMFILVWAIYSSLFTPMEFGFFRGLPERLFVLDIVGQIAFLVDIVLQFFVAYRDTQTYRTVYKPTRIAFRYLKSHFLMDFIGCFPWDLIYKASGKHELVRYLLWIRLFRVRKVVEFFQRLEKDTRINYLFTRILK
notes: All negatively-charged amino acids (Asp, Glu) of the N-terminal charged domains replaced with Lys
B2: gVSD^PN (other)
chain: MGRLRRRQEIIDHEEEESNDDVSSDDGDLSLAETFDWLDSSEDDDIETDGDNDYDYIIDPKNRWYKAWEMFILVWAIYSSLFTPMEFGFFRGLPERLFVLDIVGQIAFLVDIVLQFFVAYRDTQTYRTVYKPTRIAFRYLKSHFLMDFIGCFPWDLIYKASGKHELVRYLLWIRLFRVRKVVEFFQRLEKDTRINYLFTRILK
notes: All positively-charged residues of the N-terminal charged domains replaced with negatively-charged residues
B3: full-length GORK channel (GORK-Cub bait fusion) (other)
chain: MGRLRRRQEIIDHEEEESNDDVSSRRGKLSLAETFRWLDSSEHRRIETDGHNDYKYIIHPKNRWYKAWEMFILVWAIYSSLFTPMEFGFFRGLPERLFVLDIVGQIAFLVDIVLQFFVAYRDTQSYRTVYKPTRIAFRYLKSHFLMDFIGCFPWDLIYKASGKHELVRYLLWIRLFRVRKVVEFFQRLEKDTRINYLFTRILKLLFVEVYCTHTAACIFYYLATTLPPEQEGYTWIGSLKLGDYSYENFREIDLWKRYTTALYFAIVTMATVGYGDIHAVNLREMIFVMIYVSFDMVLGAYLIGNVTALIVKGSNTERFRDKMNDLISFMNRKKLGRDLRSQITGHVRLQYDSHYTDTVMLQDIPASIRAKIAQLLYLPYIKKVPLFKGCSTEFINQIVIRLHEEYFLPGEVITEQGNVVDHLYFVCEGLLEALVTKTDGSEESVTLLGPHTSFGDISIICNISQPFTVRVCELCHLLRLDKQSFSNILEIYFHDGRTILNNIMEEKESNDRIKKLESDIVIHIGKQEAELALKVNSAAFQGDFYQLKSLIRSGADPNKTDYDGRSPLHLAACRGYEDITLFLIQEGVDVNLKDKFGHTPLFEAVKAGQEGVIGLLVKEGASFNLEDSGNFLCTTVAKGDSDFLKRLLSSGMNPNSEDYDHRTPLHVAASEGLFLMAKMLVEAGASVISKDRWGNSPLDEARLCGNKKLIKLLEDVKNAQSSIYPSSLRELQEERIERRKCTVFPFHPQEAKEERSRKHGVVVWVPSNLEKLIVTAAKELGLSDGASFVLLSEDQGRITDIDMISDGHKLYMISDTTDQT
notes: Full-length channel expressed in yeast as a Cub bait fusion (mbSUS) and in vivo as an rBiFC partner; also called full-length GORK channel Y-Cub fusion; Guard cell Outward Rectifying Potassium (K+) channel
B4: kVSD N-terminus (soluble) (other, UniProt Q39128 1-63, looked up)
chain: MSISWTRNFFERFCVEEYNIDTIKQSSFLSADLLPSLGARINQSTKLRKHIISPFNPRYRAWE
notes: domain: cytosolic N-terminus; Gel filtration construct; also called kVSD N-termini; KAT1 N-terminus
B5: gVSD^NP N-terminus (soluble) (other)
chain: MGRLRRRQEIIDHEEEESNDDVSSRRGKLSLAKTFRWLKSSKKRRIKTKGKNKYKYIIKPKNRWYKAWE
notes: also called gVSDNP N-termini

Assays:
[1] = target: B3; assay: rBiFC in vivo, confocal imaging
[2] = target: B3; assay: mbSUS, GORK-Cub bait
full-length KAT1 = target: T2, full-length KAT1 (UniProt Q39128 1-677, limits assumed); assay: mbSUS, GORK-Cub bait
T2 construct: whole, on cells; Nub-X prey in mbSUS in yeast

[3] = target: T1, KAT1 voltage sensor domain (kVSD); assay: mbSUS, GORK-Cub bait
[4] = target: the molecule itself; assay: gel filtration of soluble N-termini (self-association)

Binder: B1
binding result [1]: no binding

Binder: B2
binding result [2]: no binding

Binder: B3
binding result (full-length KAT1): no binding | binding result [3]: no binding

Binder: B4
binding result [4]: no binding

Binder: B5
binding result [4]: no binding
